{"source": "paper PMC5706989", "about": "(Molecular Biology of the Cell, 2017)", "key": {"[1]": {"target": "the molecule itself", "assay": "one-colour scanning fluorescence correlation spectroscopy"}, "[2]": {"target": "the molecule itself", "assay": "one-colour scanning fluorescence correlation spectroscopy", "remark": "listed apart in the source"}, "[3]": {"target": "the molecule itself", "assay": "two-colour scanning fluorescence"}, "[4]": {"target": "the molecule itself", "assay": "two-colour scanning fluorescence", "remark": "listed apart in the source"}, "[5]": {"target": "the molecule itself", "assay": "two-colour scanning fluorescence", "remark": "listed apart in the source"}, "[6]": {"target": "the molecule itself", "assay": "two-colour scanning fluorescence", "remark": "listed apart in the source"}}, "data": [{"protein": "APLP1–yellow fluorescent protein (APLP1-YFP) (natural protein, UniProt P51693 39-650, looked up) SLAGGSPGAAEAPGSAQVAGLCGRLTLHRDLRTGRWEPDPQRSRRCLRDPQRVLEYCRQMYPELQIARVEQATQAIPMERWCGGSRSGSCAHPHHQVVPFRCLPGEFVSEALLVPEGCRFLHQERMDQCESSTRRHQEAQEACSSQGLILHGSGMLLPCGSDRFRGVEYVCCPPPGTPDPSGTAVGDPSTRSWPPGSRVEGAEDEEEEESFPQPVDDYFVEPPQAEEEEETVPPPSSHTLAVVGKVTPTPRPTDGVDIYFGMPGEISEHEGFLRAKMDLEERRMRQINEVMREWAMADNQSKNLPKADRQALNEHFQSILQTLEEQVSGERQRLVETHATRVIALINDQRRAALEGFLAALQADPPQAERVLLALRRYLRAEQKEQRHTLRHYQHVAAVDPEKAQQMRFQVHTHLQVIEERVNQSLGLLDQNPHLAQELRPQIQELLHSEHLGPSELEAPAPGGSSEDKGGLQPPDSKDDTPMTLPKGSTEQDAASPEKEKMNPLEQYERKVNASVPRGFPFHSSEIQRDELAPAGTGVSREAVSGLLIMGAGGGSLIVLSMLLLRRKKPYGAISHGVVEVDPMLTLEEQQLRELQRHGYENPTYRFLEERP", "values": [{"measurement": "stoichiometry N", "setting": "[1]", "result": 1.9}, {"measurement": "stoichiometry N", "setting": "[2]", "result": 2}, {"measurement": "stoichiometry N", "setting": "[3]", "result": 1.8}, {"measurement": "stoichiometry N", "setting": "[4]", "result": 6}, {"measurement": "stoichiometry N", "setting": "[5]", "result": 3}, {"measurement": "stoichiometry N", "setting": "[6]", "result": 21}]}]}
